Measurements published in PMC9364023, “In vitro single molecule and bulk phase studies reveal the AP-1 transcription factor cFos binds to DNA without its partner cJun” (The Journal of Biological Chemistry, 2022).
Where no end group is shown, it is not given here.

B1: cJun bZIP region (252-308) synthetic peptide, C-terminally biotin-tagged (peptide)
chain: RIKAERKRMRNRIAASKCRKRKLERIARLEEKVKTLKAQNYELASTANMLREQVAQLGAP-biotin
notes: bZIP region of cJun, residues 252-308 as stated; gly-ala-pro spacer before the C-terminal biotin; In the tightrope assays the peptide was conjugated through its biotin to streptavidin-coated Qdot 655 and/or Qdot 605; It holds the bZIP domain only; source: synthetic peptide (PeptideSynthetics)

Experiments:
[1] = target: cFos bZIP region (137-193) synthetic peptide, C-terminally biotin-tagged (human); experiment: dual-colour single-molecule fluorescence imaging on DNA tightropes; biotinylated peptide conjugated to premixed equimolar streptavidin Qdot 605 and Qdot 655 (100 nM peptide, 200 nM Qdots, diluted 50-fold); bound to Lambda DNA tightropes; HSABC buffer (50 mM Tris pH 7.5, 150 mM KCl, 10 mM MgCl2); room temperature (20 C); dual-coloured spots counted among DNA-bound molecules; monomer to dimer on DNA
[2] = target: cFos bZIP region (137-193) synthetic peptide, C-terminally biotin-tagged (human); experiment: Qdot blinking analysis of single molecules on DNA tightropes; Qdot 655 conjugates only; blinks counted in 50 kymographs of 60 s for each protein; dual Poisson model fitted to cJun and cFos together; HSABC buffer; monomer to dimer on DNA
[3] = target: the molecule itself; experiment: dual-colour single-molecule fluorescence imaging on DNA tightropes; biotinylated peptide conjugated to premixed equimolar streptavidin Qdot 605 and Qdot 655 (100 nM peptide, 200 nM Qdots, diluted 50-fold); bound to Lambda DNA tightropes; HSABC buffer (50 mM Tris pH 7.5, 150 mM KCl, 10 mM MgCl2); room temperature (20 C); dual-coloured spots counted among DNA-bound molecules; monomer to dimer on DNA

Molecule | percent of DNA-bound entities that were dual-colored [1] [%] | percent of DNA-bound molecules dimerized [1] [%] | stoichiometry N [1] | percent dimer (fit of Qdot blinking) [2] [%] | stoichiometry N [3]
cFos bZIP region (137-193) synthetic peptide, C-terminally biotin-tagged | 15 | 30 | 2 | 45.8 | –
B1 | – | – | – | – | 2
